This sample holds only a part of the variants without activity.
Legend:
biotinyl-Met-oxazolone = assay: self-aminoacylation, catalytic enhancement (BMO) (fold over background); higher = more active; k-Seq, kA / k0A0; sequences stand for … in GGGAAUGGAUCCACAUCUACGAAUUC…UUCACUGCAGACUUGACGAAGCUG
Procedure, shortened: (§1)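 The uncatalyzed rate is the low-activity peak of a bimodal Gaussian fit, and catalytic enhancement is median kA divided by it. The kA values came from pseudo-first-order fits, with 1000 bootstraps, of per-sequence fraction reacted measured by streptavidin capture, triplicate qPCR and Illumina sequencing. Mutagenized RNA pools with a 21-nt variable region (0.43 μM) were reacted with each biotinyl-aminoacyl-oxazolone at 2–1250 μM in 50 μL HEPES/NaCl/KCl/MgCl2/CaCl2 buffer with 5% acetonitrile, pH 6.9–7.0, for 90 minutes at room temperature.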

biotinyl-Phe-oxazolone = assay: self-aminoacylation, catalytic enhancement (BFO) (fold over background); higher = more active; k-Seq, kA / k0A0; sequences stand for … in GGGAAUGGAUCCACAUCUACGAAUUC…UUCACUGCAGACUUGACGAAGCUG
Procedure, shortened: as §1

biotinyl-Val-oxazolone = assay: self-aminoacylation, catalytic enhancement (BVO) (fold over background); higher = more active; k-Seq, kA / k0A0; sequences stand for … in GGGAAUGGAUCCACAUCUACGAAUUC…UUCACUGCAGACUUGACGAAGCUG
Procedure, shortened: as §1

biotinyl-Ile-oxazolone = assay: self-aminoacylation, catalytic enhancement (BIO) (fold over background); higher = more active; k-Seq, kA / k0A0; sequences stand for … in GGGAAUGGAUCCACAUCUACGAAUUC…UUCACUGCAGACUUGACGAAGCUG
Procedure, shortened: as §1

biotinyl-Trp-oxazolone = assay: self-aminoacylation, catalytic enhancement (BWO) (fold over background); higher = more active; k-Seq, kA / k0A0; sequences stand for … in GGGAAUGGAUCCACAUCUACGAAUUC…UUCACUGCAGACUUGACGAAGCUG
Procedure, shortened: as §1

biotinyl-Leu-oxazolone = assay: self-aminoacylation, catalytic enhancement (BLO) (fold over background); higher = more active; k-Seq, kA / k0A0; sequences stand for … in GGGAAUGGAUCCACAUCUACGAAUUC…UUCACUGCAGACUUGACGAAGCUG
Procedure, shortened: as §1

Sequence | self-aminoacylation (biotinyl-Met-oxazolone) | self-aminoacylation (biotinyl-Phe-oxazolone) | self-aminoacylation (biotinyl-Val-oxazolone) | self-aminoacylation (biotinyl-Ile-oxazolone) | self-aminoacylation (biotinyl-Trp-oxazolone) | self-aminoacylation (biotinyl-Leu-oxazolone)
ACGUUUGCUUAUAGUCGCAAG [Fam3.1 aminoacylation ribozyme variant] | 1.68 | 1.76 | 1.46 | 1.32 | 1.75 | 1.67
ACGUUUGGUAAUAGUCGCAAG [Fam3.1 aminoacylation ribozyme variant] | 1.54 | 2.95 | 1.55 | 1.75 | 2.45 | 2.1
ACGUUUGUUAAUAGUCGCAAG [Fam3.1 aminoacylation ribozyme variant] | 2.07 | 3.28 | 1.69 | 1.85 | 1.71 | 2.19
ACUAACCUAGGUCAUCGGGUG [Fam2.2 aminoacylation ribozyme variant] | 6.8 | 40.7 | 3.36 | 5.7 | 6.91 | 8.64
ACUACCCAGGUCAUCGAGUGA [Fam2.1 aminoacylation ribozyme variant] | 5.02 | 23.2 | 3.89 | 3.72 | 5.32 | 6.28
ACUACCCGGGUCAUCGAGUGA [Fam2.1 aminoacylation ribozyme variant] | 7.84 | 43.7 | 4.17 | 4.64 | 8.27 | 8.28
ACUACCCUGGUCACCGAGUGA [Fam2.1 aminoacylation ribozyme variant] | 9.06 | 46.5 | 4.77 | 4.67 | 9.34 | 11.2
ACUACCCUGGUCAUCCAGUGA [Fam2.1 aminoacylation ribozyme variant] | 5.05 | 21.2 | 3.27 | 3.37 | 5.86 | 5.01
ACUACCCUGGUCAUCGACUGA [Fam2.1 aminoacylation ribozyme variant] | 1.09 | 3.44 | 0.854 | 0.918 | 0.51 | 0.769
ACUACCCUGGUCAUCGAGUUA [Fam2.1 aminoacylation ribozyme variant] | 5.07 | 8.46 | 2.38 | 2.05 | 3.55 | 5.11
ACUACCCUGGUCUUCGAGUGA [Fam2.1 aminoacylation ribozyme variant] | 4.26 | 11.5 | 2.72 | 2.45 | 5.15 | 4.54
ACUAGCCUGGUCAUCGAGUGA [Fam2.1 aminoacylation ribozyme variant] | 4.28 | 30.2 | 3.68 | 3.66 | 5.21 | 4.72
ACUCACAUAGGUCAUCGGGUG [Fam2.2 aminoacylation ribozyme variant] | 9.37 | 69.5 | 6.65 | 6.79 | 10.2 | 10.6
ACUCACCAAGGUCAUCGGGUG [Fam2.2 aminoacylation ribozyme variant] | 5.24 | 46.4 | 4.52 | 4.43 | 6.28 | 7.13
ACUCACCUAGGCCAUCGGGUG [Fam2.2 aminoacylation ribozyme variant] | 4.87 | 34.2 | 6.46 | 4.74 | 5.91 | 5.87
ACUCACCUAGGUCAUGGGGUG [Fam2.2 aminoacylation ribozyme variant] | 3.95 | 24.8 | 4 | 3.61 | 4.43 | 4.65
ACUCACCUCGGUCAUCGGGUG [Fam2.2 aminoacylation ribozyme variant] | 4.36 | 34.4 | 4.77 | 4.08 | 6.06 | 5.87
ACUCACCUGGGUCAUCGGGUG [Fam2.2 aminoacylation ribozyme variant] | 4.83 | 38.9 | 4.66 | 4.86 | 8.05 | 5.61
ACUGCCCUGGUCAUCGAGUGA [Fam2.1 aminoacylation ribozyme variant] | 36 | 269 | 14.9 | 13.4 | 37.1 | 34.1
AGACACUUCAAGCAAUCGGUC [Fam1B.1 aminoacylation ribozyme variant] | 2.62 | 19 | 2.64 | 2.8 | 16 | 3.25
AGACUUCAAACAAUCGGUCUG [Fam1A.1 aminoacylation ribozyme variant] | 2.4 | 125 | 1.93 | 2.06 | 48.1 | 3.5
AGCUUUGCUAAUAGUCGCAAG [Fam3.1 aminoacylation ribozyme variant] | 3.31 | 9.09 | 2.4 | 2.95 | 3.68 | 3.02
AGGCACCUAGGUCAUCGGGUG [Fam2.2 aminoacylation ribozyme variant] | 3.14 | 17 | 3.73 | 2.94 | 4.1 | 3.18
AGGUUAGCUAAUAGUCGCAAG [Fam3.1 aminoacylation ribozyme variant] | 1.46 | 2.66 | 1.77 | 1.97 | 3.06 | 2.16
AGGUUUACUAAUAGUCGCAAG [Fam3.1 aminoacylation ribozyme variant] | 1.84 | 4.12 | 1.47 | 1.58 | 1.81 | 1.49

Reference: the supplement of paper PMC9233669
